Experimental data taken from the Human Domainome abundance scans (Beltran et al. 2025).
± gives the uncertainty stated by the source.

B1: Max-interacting protein 1, residues 70 to 120; numbered along this chain, P50539 (parent)
chain: STHNELEKNRRAHLRLCLERLKVLIPLGPDCTRHTTLGLLNKAKAHIKKLE

Variants of: B1
Test: abundance fitness (aPCA) (normalised: wild type 0, dead -1); higher = more abundant; growth selection in yeast, the domain comes from the species named
Settings: Homo sapiens

Variant | abundance fitness
STHNELEKNRRAHLRQCLERLKVLIPLGPDCTRHTTLGLLNKAKAHIKKLE [L16Q] | 0.16 ± 0.14
STHNELEKNRRAHLRRCLERLKVLIPLGPDCTRHTTLGLLNKAKAHIKKLE [L16R] | 0.165 ± 0.089
STHNELEKNRRAHLRLCLERLKVLIPLGPDCTRHTTLYLLNKAKAHIKKLE [G38Y] | -0.546 ± 0.18
STHNELEKNRRAHLRLCLERLKVLIPLGPDCTRHTTLGLNNKAKAHIKKLE [L40N] | -0.584 ± 0.3
STHNELEKNRRAHLRLCLERLKVLIPLGPDCTRHTTLGLMNKAKAHIKKLE [L40M] | -0.098 ± 0.13
STHNELEKNRRAHLRLCLERLKVLIPLGPDCTRHTTLGLHNKAKAHIKKLE [L40H] | -0.86 ± 0.32
STHNELEKNRRAHLRLCLERLKVLIPLPPDCTRHTTLGLLNKAKAHIKKLE [G28P] | -0.015 ± 0.13
STHNELEKNRRAHLRLCLERLKVLIPLGPDCTRHTTLGLLNKWKAHIKKLE [A43W] | -0.303 ± 0.11
STHNELEKNRRAHLRLCLERLKVTIPLGPDCTRHTTLGLLNKAKAHIKKLE [L24T] | -0.455 ± 0.13
STHNELEKNRRAHLRLCLEALKVLIPLGPDCTRHTTLGLLNKAKAHIKKLE [R20A] | -0.677 ± 0.11
STHNELEKNRRAHLRLCLETLKVLIPLGPDCTRHTTLGLLNKAKAHIKKLE [R20T] | -0.377 ± 0.15
STHNELEKNRRAHLRLCLENLKVLIPLGPDCTRHTTLGLLNKAKAHIKKLE [R20N] | -0.335 ± 0.28
STHNELEKNRRAHLRLCLEDLKVLIPLGPDCTRHTTLGLLNKAKAHIKKLE [R20D] | -1.17 ± 0.28
STHNELEKNRREHLRLCLERLKVLIPLGPDCTRHTTLGLLNKAKAHIKKLE [A12E] | -0.432 ± 0.11
STHNELEKNRIAHLRLCLERLKVLIPLGPDCTRHTTLGLLNKAKAHIKKLE [R11I] | -0.252 ± 0.26
STHNELEKNRRAHLRLCLERLKVLIPLGPDCTRHTFLGLLNKAKAHIKKLE [T36F] | 0.155 ± 0.13
STHNSLEKNRRAHLRLCLERLKVLIPLGPDCTRHTTLGLLNKAKAHIKKLE [E5S] | -0.205 ± 0.11
STHNDLEKNRRAHLRLCLERLKVLIPLGPDCTRHTTLGLLNKAKAHIKKLE [E5D] | -0.021 ± 0.15
STHNELEKNRRAHLRLCLERLKFLIPLGPDCTRHTTLGLLNKAKAHIKKLE [V23F] | -0.191 ± 0.13
STHNELEKNRRAHLRLCLERLKSLIPLGPDCTRHTTLGLLNKAKAHIKKLE [V23S] | 0.317 ± 0.093
STHNELEKNRRAHLRLCLERLKELIPLGPDCTRHTTLGLLNKAKAHIKKLE [V23E] | 0.096 ± 0.17
STHNELEKNRRAHLRLCLERLKHLIPLGPDCTRHTTLGLLNKAKAHIKKLE [V23H] | 0.455 ± 0.13
STHNECEKNRRAHLRLCLERLKVLIPLGPDCTRHTTLGLLNKAKAHIKKLE [L6C] | -0.123 ± 0.13
STHNEHEKNRRAHLRLCLERLKVLIPLGPDCTRHTTLGLLNKAKAHIKKLE [L6H] | 0.519 ± 0.2
STHNEPEKNRRAHLRLCLERLKVLIPLGPDCTRHTTLGLLNKAKAHIKKLE [L6P] | 0.36 ± 0.16
STDNELEKNRRAHLRLCLERLKVLIPLGPDCTRHTTLGLLNKAKAHIKKLE [H3D] | 0.023 ± 0.15

Variant | abundance fitness
STKNELEKNRRAHLRLCLERLKVLIPLGPDCTRHTTLGLLNKAKAHIKKLE [H3K] | 0.178 ± 0.14
STQNELEKNRRAHLRLCLERLKVLIPLGPDCTRHTTLGLLNKAKAHIKKLE [H3Q] | -0.023 ± 0.13
STPNELEKNRRAHLRLCLERLKVLIPLGPDCTRHTTLGLLNKAKAHIKKLE [H3P] | 0.018 ± 0.12
STHNELEKNRRAHLRLCLERLKVLIPLGPDCTRHTTPGLLNKAKAHIKKLE [L37P] | -0.624 ± 0.15
STHNELEKNRRAHLRLCLERLKVLIPLGPDCTRHTTEGLLNKAKAHIKKLE [L37E] | -0.344 ± 0.11
STHNELEKNRRAHLRLCLERLKVLIPLGPDCTRHTTFGLLNKAKAHIKKLE [L37F] | 0.105 ± 0.15
STHNELEKNRRAHLRLCLERLKVLIPLGPDCTRHTTAGLLNKAKAHIKKLE [L37A] | -0.026 ± 0.093
STHNELEKNRRAHLRLCLERLKVLIPLGPDCTRHTTGGLLNKAKAHIKKLE [L37G] | -0.107 ± 0.089
STHNELEKNRRAHLRLCLERLKVLIPLGPDCTRHTTLGLLNKAKAHPKKLE [I47P] | -1.06 ± 0.17
STHNELEKNRRAHLRLCLERLKVLIPLGPDCTRHTTLGLLNKAKAHQKKLE [I47Q] | -0.931 ± 0.14
STHNELEKNRRAHLRLCLERLKVLIPLGPDCTRHTTLGLLNKAKAHFKKLE [I47F] | 0.216 ± 0.21
STHNELEWNRRAHLRLCLERLKVLIPLGPDCTRHTTLGLLNKAKAHIKKLE [K8W] | -0.444 ± 0.11
STHNELERNRRAHLRLCLERLKVLIPLGPDCTRHTTLGLLNKAKAHIKKLE [K8R] | -0.353 ± 0.089
STHNELEKNRRAHLRLCLERLKVLIPLGPDCTRHTTLGLLNKAKAHIKILE [K49I] | -0.81 ± 0.24
STHNELEKNRRAHLRLCLERLKVLIPLGPDCTRHTTLGLLNKAKAHIKWLE [K49W] | -0.041 ± 0.1
STHNELEKNRRAHLRLCLERLKVLIPLGPDCTRHTTLGLLNKAKAHIKPLE [K49P] | -0.638 ± 0.11
STHNELEKNRRAHLRLCLERLKVLIPLGPDCTRHTTLGLLNKAKAHIKQLE [K49Q] | -0.679 ± 0.17
STHNELEKNRRAHLRLCLERLKVLIPLGPLCTRHTTLGLLNKAKAHIKKLE [D30L] | 0.183 ± 0.071
STHNELEKNRRAHLRLCLERLKVLIPLGPICTRHTTLGLLNKAKAHIKKLE [D30I] | 0.151 ± 0.084
STHNELEKNRRAHLRLCLERLKVLIPLGPQCTRHTTLGLLNKAKAHIKKLE [D30Q] | 0.147 ± 0.089
STHNELEKNRRAHLRLVLERLKVLIPLGPDCTRHTTLGLLNKAKAHIKKLE [C17V] | 0.061 ± 0.092
STHNELEKNRRAHLRLCLERLKVLIPLGPDCTRHTTLGLLNKAKAPIKKLE [H46P] | -0.6 ± 0.16
STHNELEKNRRAHLRLCLERLKVLIPLGPDCTRHTTLGLLNKAKAKIKKLE [H46K] | 0.186 ± 0.13
STHNELEKNRRAHLRLCLERLKVLIPLGPDCTRHTTLGLLNKAKAVIKKLE [H46V] | 0.116 ± 0.097
STHNELEKNRRAHLRLCLERLKVLIPLGPDCTRHTTLGLLNKAKAAIKKLE [H46A] | 0.157 ± 0.11
